Measurements: the nanobody polyreactivity screen of Harvey et al. (2022)

Test: yeast display, Sf9 membrane polyspecificity reagent, FACS + sequencing; frameworks hold sequencing errors
How it was run: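 Nanobodies from a synthetic yeast display library (Saccharomyces cerevisiae BJ5465), induced 36–48 hours with galactose, were stained 1 hour at 4 °C with 10% biotinylated, detergent-solubilized Sf9 membrane reagent, enriched on streptavidin microbeads, then FACS-sorted. Anti-HA (expression) and streptavidin (reagent binding) fluorescence set low and high (top ~1%) gates. Polyreactivity labels come from the gate of origin. Genes were colony-PCR amplified, MiSeq 2 × 250 sequenced and filtered by CDR length.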

Sequence | polyreactivity (PSR sort gate)
QVQLVESGGGLVQAGGSLRLSCAASGSTFRRYAMGWYRQAPGKERELVAAITTRGGSTYYADSVKGRFTISRDNAKNSVYLQMNSLKPEDTAVYYCARDYSTYLRTAGDYWGQGTQVTVSS | low polyreactivity
QVQLVESGGGLVQAGGSLRLSCAASGSTFRRYAMGWYRQAPGKERELVAGISKRGVSTYYADSVKGRFTISRDNAKNTVYLQMNSLKPEDTAVYYCAAEWTVSKYDYWGQGTQVTVSS | low polyreactivity
QVQLVESGGGLVQAGGSLRLSCAASGSTFRRYAMGWYRQAPGKEREMVAGITYGSTYYADSVKGRFTISRDNAKNTVYLLMNSLKPEDTAVYYCAADLSYTSVHGYRSDTLMDYWGQGTQVTVSS | low polyreactivity
QVQLVESGGGLVQAGGSLRLSCAASGSTFRSNAMGWYRQAPGKERELVAGISRRGGSTYYADSVTGRVTISRDNAKNTVYLQMNSLKPEDTAVDYCAASSRSFIRVYYWGQGTQVTVSS | high polyreactivity
QVQLVESGGGLVQAGGSLRLSCAASGSTFRSYAMGWYRQAPGKERELVAVISKRGGSTYYADSVKGRFTISRDNAKNTVYLQMNSLKPEDTAVYYCAARPGPYWTVTFRSPKYYYWGQGTQVTVSS | high polyreactivity
QVQLVESGGGLVQAGGSLRLSCAASGSTFRSYAMGWYRQAPGKERESVARISYRTGSTYYADSVKGRFTISRDNAKNTVYLQMNSLEPEDTAVYYCATRGSYVGGLYDYWGQGTQVTVSS | high polyreactivity
QVQLVESGGGLVQAGGSLRLSCAASGSTFRSYAMGWYRQSPGKERELVAAISTRGGSTYYADSVKGRFTISRDNAKNTVYLQMNSLKPEDTAVYYCAVEIVWAYGPTDYYYWGQGTQVTVSS | high polyreactivity
QVQLVESGGGLVQAGGSLRLSCAASGSTFRSYDMGWYRQAPGKERELVAASSSGGSTNYADSVKGRFTISRDNAKNTVYLQMNSLKPEDTAVYYCNAEYPYYWFKYDYWGQGTQVTVSS | low polyreactivity
QVQLVESGGGLVQAGGSLRLSCAASGSTFRSYNMGWYRQAPGKERELVADINGTGGSTYYADSVKGRFTISRDNAKNTVYLQMNSLKPEDTAVYYCAADGYFRTVTSGWALRMGYWGQGTQVTVSS | high polyreactivity
QVQLVESGGGLVQAGGSLRLSCAASGSTFRTNAMGWYRQAPGKERELVAAISGSGSRTYYADSVKGRFTISRDNAKNTVYLQMNSLKPEDTAVYYCAAVYGGVGYRRREYWGQGTQVTVSS | high polyreactivity
QVQLVESGGGLVQAGGSLRLSCAASGSTFRTNAMGWYRQAPGKERELVAAITYRAGNTYYADSVKGRFTISRDNAKNTVYLQMNSLKPEDTAVYYCNAESLSFPARGRAYRYYYWGQGTQVTVSS | high polyreactivity
QVQLVESGGGLVQAGGSLRLSCAASGSTFRTYAIGWYRQAPAKERELVAAISRSGGRTYYADSVKGRFTISRDNAMNTVYLQMNSLKPEDTAVYYCAVGDTYTYDYWGQGTQVTVSS | high polyreactivity
QVQLVESGGGLVQAGGSLRLSCAASGSTFRTYTMGWYRQAPGKERELVAAGGGTYYADSVKGRFTISRDNAKNTVYLQMNSLKPEDTAVYYCAAGLPIHGLRGYEYDYWGQGTQVTVSS | low polyreactivity
QVQLVESGGGLVQAGGSLRLSCAASGSTFRVNAMAWYRHAPGKERELVADITNGGSTYYADSVKGRFTISRDNAKNTVYLQMNSLKPEDTAVYYCNARPSYLRFKWYSYDYWGQGTQVTVSS | high polyreactivity
QVQLVESGGGLVQAGGSLRLSCAASGSTFRVNAMGWYRQAPGKERELVAAIRKSGGSTYADSVKGRFTISRDNAKNTVYLQMNSLKPEDTAVYYCNADATAWLGWDDNYWGQGSQVTVSS | low polyreactivity
QVQLVESGGGLVQAGGSLRLSCAASGSTFRVNAMGWYRQAPGKERELVAAIRSSGGTTYYADSVQGRFTISRDNAKNTVYLQMNSLKPEDTAVYYCAAEGYRSWRGLRSRYYYWGQGTQVTVSS | high polyreactivity
QVQLVESGGGLVQAGGSLRLSCAASGSTFRVYAMGWYRQAPGKERELVATISWGGGRTYYADSVKGRFTISRDNAKNTVYLQMNSLKPEDTAVYYCAADQRWTTDQPTAGDYWGQGTQVTVSS | low polyreactivity
QVQLVESGGGLVQAGGSLRLSCAASGSTFRVYGMGWYRQAPGKERELDAAIRWIGGRTYYADSVKGRFTISRDNAKNTVYLQMNSLKAEDTAVYYCNARAGPVRFDYWGQGTQVTVSS | low polyreactivity
QVQLVESGGGLVQAGGSLRLSCAASGSTFRWNAMGWYRQAPGKERELVAAISGNGGSTYYADSVKGRFTISRDNAKNTVYLHMNTLKPEYNAVYYCAARGYFCSSYKYDYRGQGTQVTVSS | high polyreactivity
QVQLVESGGGLVQAGGSLRLSCAASGSTFRWNAMGWYRQAPGKERELVASITSGGSTNYADSVKGRFTISRDNAKNTVYLQMNSLKPEDTAVYYCNADVRRSTYYVWLYDYWGQGTQVTVSS | low polyreactivity
QVQLVESGGGLVQAGGSLRLSCAASGSTFRWNAMGWYRQAPWKERELVAAITWSGGRTYYADSVKGRFTISRDNAKNTVYLQMNSLKPEDTAVYYCAAVRGPEHWYDYYYWGQGTQVTVSS | high polyreactivity
QVQLVESGGGLVQAGGSLRLSCAASGSTFRWYAMGWYRQAPGKERELVAAISWSGSTTYYADSVKGRFTISRDNAKNTVYLQMNSLKPEDTAVYYCAAEVVFFGWNYDYWGQGTQVTVSS | high polyreactivity

Sequence | polyreactivity (PSR sort gate)
QVQLVESGGGLVQAGGSLRLSCAASGSTFRWYTMGWYRQAPGKERELVAAITASGGSTFYADSVKGRFTISRDNAKNTVYLQMNSLKPEDTAVYYCAAVNRPRPRRSDYWGQGTQVTVSS | high polyreactivity
QVQLVESGGGLVQAGGSLRLSCAASGSTFRYAMGWYRQAPGKERELVATISSGGSTNYADSVKGRFTISRDNAKNTVYLQMNSLKPEDTAVYYCAADPYGGDNDKGDYWGQGTQVTVSS | low polyreactivity
QVQLVESGGGLVQAGGSLRLSCAASGSTFRYNALGWYRQAPGKERELVAAINYRGGSTYYADSVKGRFTISRDNAKNTVYLQMNSLKPEDTAVYYCNAVLPLAKYEYDSWGHGTQVTVSS | high polyreactivity
QVQLVESGGGLVQAGGSLRLSCAASGSTFRYNAMGWYRQAPGKERELVATITGSGGSTYYADSVKGRFTISRDNAKNTVYLQMNSLKPEDTAVYYCAAAYRGRYSWYYFPRYAYWGQGTQVTVSS | high polyreactivity
QVQLVESGGGLVQAGGSLRLSCAASGSTFRYNAMGWYRQAPWKERELVAAITSGGSTYYADSVKGRFTISRDNAKNTVYLQMNSLKPEDTAVYYCAALWQSRWYKMDYWGQGTQVTVSS | high polyreactivity
QVQLVESGGGLVQAGGSLRLSCAASGSTFRYNSMGWYRQAPGKDRELVAAISRIGGTTYADSVKGRFTISRDNAKNTVYLQMNSLNPEDTAVYYCARANWGYYGPEYGYWGQGTQVTVSS | high polyreactivity
QVQLVESGGGLVQAGGSLRLSCAASGSTFRYNTMGWDRQAPGKERELVAAISGGGGSTYYADSVKGRFTISRDNAKNTVYLQMNSLKPEDTAVYYCAKRHWYAGYVSSYTTRYDYWGQGTQVTVSS | low polyreactivity
QVQLVESGGGLVQAGGSLRLSCAASGSTFRYNTMGWYRQAPGKERELVAAISSGGGTHFADSVKGRFTISRDNAKNTVYLQMNSLKPEDTAVYYCAAQSRYRYQFYSGLEYDYWGQGTQVTVSS | low polyreactivity
QVQLVESGGGLVQAGGSLRLSCAASGSTFRYYAMGWYRQAPGKERELVAAISGTGSTYYADSVKGRFTISRDNAKNTVSLQMNSLKPEDTAVYYCGAYPRGSQRYNYWGQGTQVTVSS | high polyreactivity
QVQLVESGGGLVQAGGSLRLSCAASGSTFRYYAMGWYRQAPGKERELVAAISSSGGRTYYADSVKGRFTISRDNAKNTVYLQMNSLKPEDTAVYYCAALYLRYHYGTDFDYWGQGTKVTVSS | high polyreactivity
QVQLVESGGGLVQAGGSLRLSCAASGSTFRYYAMGWYRQAPGKERELVAAITYRGSSTYYADSVKGRFTISRDNAKNTVYLQMNSLKPEDTAVYYCARRYAGDYYYWGQGTQVTVSS | high polyreactivity
QVQLVESGGGLVQAGGSLRLSCAASGSTFRYYAMGWYRQAPGKERELVAAITYSGGRTYYADSVKGRFTISRDNAKNTVYLQMNSLKPEDTAVYYCAASFRAWSGNYWGQGTQVTVSA | high polyreactivity
QVQLVESGGGLVQAGGSLRLSCAASGSTFRYYAMGWYRQAPGKERELVARITSRAGRTYYADSVKGRFTLSRDNAKNTVYLQMNSLKPEDTAVYYCNTRDFSGYVHALSLYDYWGQGTQVTVSS | high polyreactivity
QVQLVESGGGLVQAGGSLRLSCAASGSTFRYYAMGWYRQAPGKERELVASISTGGRTYYADSVKGRFTISRDNAKNTVYLQMNSLKPEDTAVYYCAAQGYWIYNTAYGYWGQGTQVTVSS | high polyreactivity
QVQLVESGGGLVQAGGSLRLSCAASGSTFRYYAMGWYRQAPGKERELVASITSTGSTNYADSVKGRFTISRDNAKNTVYLQMNSLKPEDTAVYYCAAYRPYFGIAYGYWGQGTQVTVSS | high polyreactivity
QVQLVESGGGLVQAGGSLRLSCAASGSTFRYYAMGWYRQAPGKERELVAVIRNSGGSTYYADSVKGRFTISRDNAKNTVYLQKNSLKREDTAVYYCAARLYTFHRDYWGQGTQVTVSS | low polyreactivity
QVQLVESGGGLVQAGGSLRLSCAASGSTFRYYAMGWYRQAPGKERQLVAAISYRGGSTKYADSVKGRFTISRDNAKNTVYLQMNSLKPEDTAVYYCAADSYYDSKRYYWGQGTQVTVSS | high polyreactivity
QVQLVESGGGLVQAGGSLRLSCAASGSTFRYYAMGWYRQAPGKEWELVAVISTSGNTYYADSVKGRFTISRDNAKNTVYLQMNSLKPEDTAVYYCAARGVGGQISQEYDYWGQGTQVTVSS | low polyreactivity
QVQLVESGGGLVQAGGSLRLSCAASGSTFRYYSMGWYRQAPGKERELVAAITRSGTSTYYADSVKGRFTISRDTAKNTVYLQMNSLQPEDTAFYYCNAVTPYSREYDYWGQGTQVTVSS | high polyreactivity
QVQLVESGGGLVQAGGSLRLSCAASGSTFRYYTMGWYRQAPGKEREFVAAITSSGTSTYYADSVKGRFTISRDNAKNTVYLQMNSLKPEDTAVYYCNKVGIYGSRSRYDSWGQGTQVTVSS | high polyreactivity
QVQLVESGGGLVQAGGSLRLSCAASGSTFRYYTMGWYRQAPGKERELVARISRSGGSTYYADSVKGRFTISRDNAKNTVYLQMNSLKPEDTAVYYCAALYYVKPGQRYDYWGQGTQVTVSS | high polyreactivity
